Measurements taken from patent US20140271457A1 (AbbVie / Abbott, published 2014).

B1: DVD3174 (bispecific antibody, IgG1)
VH: EVQLVQSGAEVKKPGASVKVSCKASGYTFNNYGIIWVRQAPGQGLEWMGWINTYTGKPTYAQKFQGRVTMTTDTSTSTAYMELSSLRSEDTAVYYCARKLFNTVAVTDNAMDYWGQGTTVTVSSASTKGPEVQLVQSGAEVKKPGASVKVSCKASGYTFTSYWMHWVRQAPGQGLEWIGNINPKGGSNIYNEKFQGRVTMTRDTSISTAYMELSRLRSDDTAVYYCARLDYFGDSFDLWGQGTTVTVSS
VL: DIQMTQSPSSLSASVGDRVTITCRASQDIENYLNWYQQKPGKAPKLLIYYTSRLQSGVPSRFSGSGSGTDFTLTISSLQPEDFATYFCQQGNTQPPTFGQGTKLEIKRTVAAPDIQMTQSPSSLSASVGDRVTITCRASQGIRNYLNWYQQKPGKAPKLLIYYASNLEVGVPSRFSGSGSGTDYTLTISSLQPEDFATYYCQQDNRFPYTFGGGTKVEIKR
notes: DVD-Ig; wt hIgG1 + kappa constants
B2: DVD3176 (bispecific antibody, IgG1)
VH: B1 VH
VL: DIQMTQSPSSLSASVGDRVTITCRASQDIENYLNWYQQKPGKAPKLLIYYTSRLQSGVPSRFSGSGSGTDFTLTISSLQPEDFATYFCQQGNTQPPTFGQGTKLEIKRTVAAPSVFIFPPDIQMTQSPSSLSASVGDRVTITCRASQGIRNYLNWYQQKPGKAPKLLIYYASNLEVGVPSRFSGSGSGTDYTLTISSLQPEDFATYYCQQDNRFPYTFGGGTKVEIKR
notes: as for B1
B3: DVD3116 (bispecific antibody, IgG1)
VH: EVQLVQSGAEVKKPGASVKVSCKASGYTFNNYGIIWVRQAPGQGLEWMGWINTYTGKPTYAQKFQGRVTMTTDTSTSTAYMELSSLRSEDTAVYYCARKLFNTVAVTDNAMDYWGQGTTVTVSSASTKGPEVQLVQSGAEVKKPGASVKVSCKASGYTFTTYGVSWVRQAPGQGLEWMGEIYPGNYNTYYNEKFRGRVTMTTDTSTSTAYMELRSLRSDDTAVYYCARWRTSYFSDYGYFDYWGQGTTVTVSS
VL: DIQMTQSPSSLSASVGDRVTITCRASQDIENYLNWYQQKPGKAPKLLIYYTSRLQSGVPSRFSGSGSGTDFTLTISSLQPEDFATYFCQQGNTQPPTFGQGTKLEIKRTVAAPSVFIFPPDVVMTQSPLSLPVTLGQPASISCRSSQSLVHSHGNTYLHWYQQRPGQSPRLLIYTVSNRFSGVPDRFSGSGSGTDFTLKISRVEAEDVGVYYCSQSTHVPYTFGGGTKVEIKR
notes: as for B1
B4: AB397 (antibody, V domains shown)
VH: EVTLRESGPGLVKPTQTLTLTCTLYGFSLSTSDMGVDWIRQPPGKGLEWLAHIWWDDVKRYNPALKSRLTISKDTSKNQVVLKLTSVDPVDTATYYCARTVSSGYIYYAMDYWGQGTLVTVSS
VL: DIQMTQSPSSLSASVGDRVTISCRASQDIRNYLNWYQQKPGKAPKLLIFYTSKLHSGVPSRFSGSGSGTDYTLTISSLQPEDIATYYCQQGLTPPLTFGGGTKVEIKR
notes: parent antibody
B5: DVD3043 (bispecific antibody, IgG1)
VH: EVQLVESGGGLVQPGGSLRLSCAASGFSLTNNNVNWVRQAPGKGLEWVGGVWAGGATDYNSALKSRFTISRDNSKNTAYLQMNSLRAEDTAVYYCARDGGYSSSTLYAMDAWGQGTLVTVSSGGGGSGGGGSEVQLVQSGAEVKKPGASVKVSCKASGYTFNNYGIIWVRQAPGQGLEWMGWINTYTGKPTYAQKFQGRVTMTTDTSTSTAYMELSSLRSEDTAVYYCARKLFNTVAVTDNAMDYWGQGTTVTVSS
VL: DIQMTQSPSSLSASVGDRVTITCRASEDIYNALAWYQQKPGKAPKLLIYNTDTLHTGVPSRFSGSGSGTDYTLTISSLQPEDFATYFCQHYFHYPRTFGQGTKVEIKRGGSGGGGSGDIQMTQSPSSLSASVGDRVTITCRASQDIENYLNWYQQKPGKAPKLLIYYTSRLQSGVPSRFSGSGSGTDFTLTISSLQPEDFATYFCQQGNTQPPTFGQGTKLEIKR
B6: DVD3044 (bispecific antibody, IgG1)
VH: EVQLVESGGGLVQPGGSLRLSCAASGFSLTNNNVNWVRQAPGKGLEWVGGVWAGGATDYNSALKSRFTISRDNSKNTAYLQMNSLRAEDTAVYYCARDGGYSSSTLYAMDAWGQGTLVTVSSASTKGPEVQLVQSGAEVKKPGASVKVSCKASGYTFNNYGIIWVRQAPGQGLEWMGWINTYTGKPTYAQKFQGRVTMTTDTSTSTAYMELSSLRSEDTAVYYCARKLFNTVAVTDNAMDYWGQGTTVTVSS
VL: DIQMTQSPSSLSASVGDRVTITCRASEDIYNALAWYQQKPGKAPKLLIYNTDTLHTGVPSRFSGSGSGTDYTLTISSLQPEDFATYFCQHYFHYPRTFGQGTKVEIKRTVAAPDIQMTQSPSSLSASVGDRVTITCRASQDIENYLNWYQQKPGKAPKLLIYYTSRLQSGVPSRFSGSGSGTDFTLTISSLQPEDFATYFCQQGNTQPPTFGQGTKLEIKR
B7: DVD3173 (bispecific antibody, IgG1)
VH: EVQLVQSGAEVKKPGASVKVSCKASGYTFNNYGIIWVRQAPGQGLEWMGWINTYTGKPTYAQKFQGRVTMTTDTSTSTAYMELSSLRSEDTAVYYCARKLFNTVAVTDNAMDYWGQGTTVTVSSGGGGSGGGGSEVQLVQSGAEVKKPGASVKVSCKASGYTFTSYWMHWVRQAPGQGLEWIGNINPKGGSNIYNEKFQGRVTMTRDTSISTAYMELSRLRSDDTAVYYCARLDYFGDSFDLWGQGTTVTVSS
VL: DIQMTQSPSSLSASVGDRVTITCRASQDIENYLNWYQQKPGKAPKLLIYYTSRLQSGVPSRFSGSGSGTDFTLTISSLQPEDFATYFCQQGNTQPPTFGQGTKLEIKRGGSGGGGSGDIQMTQSPSSLSASVGDRVTITCRASQGIRNYLNWYQQKPGKAPKLLIYYASNLEVGVPSRFSGSGSGTDYTLTISSLQPEDFATYYCQQDNRFPYTFGGGTKVEIKR
notes: as for B1
B8: AB398 (antibody, V domains shown)
VH: EVQLVQSGAEVKKPGASVKVSCKASGYTFTTYGVSWVRQAPGQGLEWMGEIYPGNYNTYYNEKFRGRVTMTTDTSTSTAYMELRSLRSDDTAVYYCARWRTSYFSDYGYFDYWGQGTTVTVSS
VL: DVVMTQSPLSLPVTLGQPASISCRSSQSLVHSHGNTYLHWYQQRPGQSPRLLIYTVSNRFSGVPDRFSGSGSGTDFTLKISRVEAEDVGVYYCSQSTHVPYTFGGGTKVEIKR
notes: parent antibody
B9: DVD2683 (bispecific antibody, IgG1)
VH: EVQLVESGGGLVQPGGSLRLSCAASGFTFSNYGVTWVRQAPGKGLEWVSMIWADGSTHYASSVKGRFTISRDNSKNTLYLQMNSLRAEDTAVYYCAREWQHGPVAYWGQGTLVTVSSGGGGSGGGGSEVTLRESGPGLVKPTQTLTLTCTLYGFSLSTSDMGVDWIRQPPGKGLEWLAHIWWDDVKRYNPALKSRLTISKDTSKNQVVLKLTSVDPVDTATYYCARTVSSGYIYYAMDYWGQGTLVTVSS
VL: DIQMTQSPSSLSASVGDRVTITCRASQLVSSAVAWYQQKPGKAPKLLIYWASARHTGVPSRFSGSGSGTDFTLTISSLQPEDFATYYCQQHYKTPFTFGQGTKLEIKRGGSGGGGSGDIQMTQSPSSLSASVGDRVTISCRASQDIRNYLNWYQQKPGKAPKLLIFYTSKLHSGVPSRFSGSGSGTDYTLTISSLQPEDIATYYCQQGLTPPLTFGGGTKVEIKR
notes: as for B1
B10: AB399 (antibody, V domains shown)
VH: EVQLVQSGAEVKKPGASVKVSCKASGYTFTSYWMHWVRQAPGQGLEWIGNINPKGGSNIYNEKFQGRVTMTRDTSISTAYMELSRLRSDDTAVYYCARLDYFGDSFDLWGQGTTVTVSS
VL: DIQMTQSPSSLSASVGDRVTITCRASQGIRNYLNWYQQKPGKAPKLLIYYASNLEVGVPSRFSGSGSGTDYTLTISSLQPEDFATYYCQQDNRFPYTFGGGTKVEIKR
notes: parent antibody

Experiments:
Recombinant Human IL-13 = Recombinant Human IL-13 (human, UniProt P35225 35-146, limits assumed); test: Biacore SPR
Description: The BIACORE assay (GE, Healthcare Piscataway, N.J.) determined the affinity of antibodies or DVD-Ig with kinetic measurements of on-rate and off-rate constants. Binding of antibodies or DVD-Ig proteins to a target antigen (for example, a purified recombinant target antigen) was determined by surface plasmon resonance-based measurements with a Biacore T200 using running HBS-EP+buffer from GE Healthcare at 25° C. All chemicals were obtained from GE Healthcare or otherwise from a different source as described in the text. For example, approximately 5000 RU of goat anti-mouse IgG, (Fcγ), fragment specific polyclonal antibody (Pierce Biotechnology Inc, Rockford, Ill.) diluted in 10 mM sodium acetate (pH 4.5) was directly immobilized across a CM5 research grade biosensor chip using a standard amine coupling kit according to manufacturer's instructions. Unreacted moieties on the biosensor surface were blocked with ethanolamine. Modified carboxymethyl dextran surface in flowcell 1 was used as a reference surface. Rate constants were derived by making kinetic binding measurements at different antigen concentrations ranging from 0.8-100 nM. Binding was recorded as a function of time and kinetic rate constants were calculated. In this assay, association rate was evaluated for 5 min and dissociation was monitored for 10 min. For kinetic screening analysis, rate equations derived from the 1:1 binding model were fitted simultaneously to association and dissociation phases of all injections (using global fit analysis with Rmax fit locally to account for capture variations) with the use of Biaevaluation software. Purified antibodies or DVD-Ig proteins were diluted in HEPES-buffered saline for capture across goat anti-mouse IgG specific reaction surfaces. Antibodies or DVD-Ig proteins to be captured as a ligand were injected over reaction matrices at a flow rate of 5 μl/minute. The association and dissociation rate constants, kₒₙ (M⁻¹ s⁻¹) and koff (s⁻¹) were determined under a continuous flow rate of 50 μl/minute. Rate constants were derived by making kinetic binding measurements at different antigen concentrations ranging from 0.8-100 nM. Binding was recorded as a function of time and kinetic rate constants were calculated. In this assay, association rate was evaluated for 5 min and dissociation was monitored for 10 min.

[1] = biological target: Recombinant Human TNF-α/TNFSF1A (human, UniProt P01375 77-233); test: cell-based or functional assay
Recombinant Human TNF-α/TNFSF1A, sequence (P01375 77-233 limits assumed): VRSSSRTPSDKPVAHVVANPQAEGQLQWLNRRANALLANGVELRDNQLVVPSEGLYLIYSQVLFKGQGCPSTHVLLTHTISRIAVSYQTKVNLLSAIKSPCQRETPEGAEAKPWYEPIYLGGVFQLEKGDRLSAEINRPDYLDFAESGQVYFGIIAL

Recombinant Human IL-13, sequence (P35225 35-146 limits assumed): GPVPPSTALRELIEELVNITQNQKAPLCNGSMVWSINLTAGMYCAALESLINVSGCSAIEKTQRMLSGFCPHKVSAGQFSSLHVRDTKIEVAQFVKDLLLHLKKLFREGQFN

Row | Binder | Kd (Recombinant Human IL-13) | koff (Recombinant Human IL-13) | kon (Recombinant Human IL-13) | C-Terminal VD huTNFα Neutralization Assay IC50 [1]
1 | B1 | 0.9 nM | 7.7e-05 s⁻¹ | 85000 M⁻¹ s⁻¹ | –
2 | B2 | 0.087 nM | 4.8e-05 s⁻¹ | 550000 M⁻¹ s⁻¹ | –
3 | B3 | < 0.017 nM | < 1e-06 s⁻¹ | 58000 M⁻¹ s⁻¹ | –
4 | B4 | 0.13 nM | 0.00012 s⁻¹ | 920000 M⁻¹ s⁻¹ | –
5 | B5 | – | – | – | 0.128 nM
6 | B6 | – | – | – | 0.673 nM
7 | B7 | 0.37 nM | 8.8e-05 s⁻¹ | 240000 M⁻¹ s⁻¹ | –
8 | B8 | 0.045 nM | 2.8e-05 s⁻¹ | 630000 M⁻¹ s⁻¹ | –
9 | B9 | 0.87 nM | 5.9e-05 s⁻¹ | 68000 M⁻¹ s⁻¹ | –
10 | B10 | 0.019 nM | 6.4e-05 s⁻¹ | 3.4e+06 M⁻¹ s⁻¹ | –
